This assay has as its target T1, GST::KIF14(901-1648) (UniProt Q15058 901-1648).
T1 sequence (looked up): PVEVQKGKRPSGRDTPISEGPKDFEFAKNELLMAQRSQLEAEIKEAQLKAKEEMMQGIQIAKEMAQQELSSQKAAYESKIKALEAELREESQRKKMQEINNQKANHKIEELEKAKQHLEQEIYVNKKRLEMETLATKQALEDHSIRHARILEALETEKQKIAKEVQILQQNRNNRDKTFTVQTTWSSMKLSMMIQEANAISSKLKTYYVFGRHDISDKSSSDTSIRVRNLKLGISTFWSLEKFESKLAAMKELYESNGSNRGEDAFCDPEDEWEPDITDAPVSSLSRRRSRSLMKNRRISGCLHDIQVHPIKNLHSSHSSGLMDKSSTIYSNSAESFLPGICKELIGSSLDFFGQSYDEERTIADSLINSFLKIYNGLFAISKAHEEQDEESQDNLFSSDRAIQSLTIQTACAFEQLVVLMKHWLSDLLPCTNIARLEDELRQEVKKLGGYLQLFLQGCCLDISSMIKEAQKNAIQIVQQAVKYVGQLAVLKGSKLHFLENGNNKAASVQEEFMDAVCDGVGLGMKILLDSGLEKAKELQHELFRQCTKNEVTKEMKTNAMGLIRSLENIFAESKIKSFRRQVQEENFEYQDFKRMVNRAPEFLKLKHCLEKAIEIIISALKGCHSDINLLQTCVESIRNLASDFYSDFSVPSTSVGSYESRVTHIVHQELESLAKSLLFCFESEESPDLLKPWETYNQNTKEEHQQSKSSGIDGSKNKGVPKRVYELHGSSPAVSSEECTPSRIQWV
Nature of the assay: pull-down.

B1: MBP::CIT-K(420-585) (domain or fragment, human, UniProt O14578-4 420-585, looked up)
chain: SYSKALGILGRSESVVSGLDSPAKTSSMEKKLLIKSKELQDSQDKCHKMEQEMTRLHRRVSEVEAVLSQKEVELKASETQRSLLEQDLATYITECSSLKRSLEQARMEVSQEDDKALQLLHDIREQSRKLQEIKEQEYQAQVEEMRLMMNQLEEDLVSARRRSDLY
As to B1, the binding result was “binds”.

B2: MBP::CIT-K(420-585) phosphorylated in vitro by CDK1-cyclin B (pS440) (domain or fragment, human, UniProt O14578-4 420-585, looked up)
chain: B1 chain
modifications: phosphoserine at 440 (detected with the CIT-K pS440 antibody)
As for B2, the binding result is “binds”.

For the origin of these results see publication doi:10.1101/2025.08.25.672096 (bioRxiv, 2025).
